Assay results published in patent publication US20260218270A1.

Key:
[1] = molecular target: T1, fusion protein of SEQ ID NO: 15 (Nanoluc luciferase at the N-terminus, VWF A2 domain aa1574-1668, Flag-tag, C-terminal His-tag)
T1 chain: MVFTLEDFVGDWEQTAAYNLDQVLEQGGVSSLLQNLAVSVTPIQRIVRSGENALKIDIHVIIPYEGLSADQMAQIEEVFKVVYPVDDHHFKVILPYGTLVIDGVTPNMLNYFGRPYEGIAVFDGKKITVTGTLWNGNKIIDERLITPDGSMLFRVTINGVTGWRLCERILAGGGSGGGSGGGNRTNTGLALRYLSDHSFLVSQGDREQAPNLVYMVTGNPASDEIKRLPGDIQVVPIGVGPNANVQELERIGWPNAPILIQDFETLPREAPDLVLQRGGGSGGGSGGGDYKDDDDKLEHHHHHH

[2] = molecular target: T2, fusion protein of SEQ ID NO: 16 (Nanoluc luciferase at the C-terminus, VWF A2 domain aa1574-1668, Flag-tag, C-terminal His-tag)
T2 chain: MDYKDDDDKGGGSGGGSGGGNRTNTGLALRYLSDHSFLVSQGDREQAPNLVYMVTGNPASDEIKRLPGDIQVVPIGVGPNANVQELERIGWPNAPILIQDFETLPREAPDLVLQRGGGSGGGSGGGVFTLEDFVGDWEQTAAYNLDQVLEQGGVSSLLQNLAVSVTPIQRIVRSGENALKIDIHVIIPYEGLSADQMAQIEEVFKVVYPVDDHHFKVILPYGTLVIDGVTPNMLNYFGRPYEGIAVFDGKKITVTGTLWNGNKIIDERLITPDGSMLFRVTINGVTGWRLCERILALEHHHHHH

[3] = molecular target: T3, N-NLuc-VWFA2-C fusion protein (SEQ ID NO: 17)
T3 chain: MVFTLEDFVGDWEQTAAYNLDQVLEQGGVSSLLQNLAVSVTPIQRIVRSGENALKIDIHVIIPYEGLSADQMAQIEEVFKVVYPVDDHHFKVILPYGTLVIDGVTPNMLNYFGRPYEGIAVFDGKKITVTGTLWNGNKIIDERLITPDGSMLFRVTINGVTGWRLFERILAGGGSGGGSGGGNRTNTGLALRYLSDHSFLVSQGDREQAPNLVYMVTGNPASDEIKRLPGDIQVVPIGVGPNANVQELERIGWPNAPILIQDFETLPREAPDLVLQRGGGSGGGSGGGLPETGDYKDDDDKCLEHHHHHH

[4] = molecular target: fusion protein of SEQ ID NO: 16 (Nanoluc luciferase at the C-terminus, VWF A2 domain aa1574-1668, Flag-tag, C-terminal His-tag); assay: cell-based or functional assay

luminescence (RLU) left on the Ni-NTA binding plate, A13 from lithium-heparin plasma, FIG. 8C [4]: 400000 RLU
B1: ADAMTS13 (protein)
chain: AAGGILHLELLVAVGPDVFQAHQEDTERYVLTNLNIGAELLRDPSLGAQFRVHLVKMVILTEPEGAPNITANLTSSLLSVCGWSQTINPEDDTDPGHADLVLYITRFDLELPDGNRQVRGVTQLGGACSPTWSCLITEDTGFDLGVTIAHEIGHSFGLEHDGAPGSGCGPSGHVMASDGAAPRAGLAWSPCSRRQLLSLLSAGRARCVWDPPRPQPGSAGHPPDAQPGLYYSANEQCRVAFGPKAVACTFAREHLDMCQALSCHTDPLDQSSCSRLLVPLLDGTECGVEKWCSKGRCRSLVELTPIAAVHGRWSSWGPRSPCSRSCGGGVVTRRRQCNNPRPAFGGRACVGADLQAEMCNTQACEKTQLEFMSQQCARTDGQPLRSSPGGASFYHWGAAVPHSQGDALCRHMCRAIGESFIMKRGDSFLDGTRCMPSGPREDGTLSLCVSGSCRTFGCDGRMDSQQVWDRCQVCGGDNSTCSPRKGSFTAGRAREYVTFLTVTPNLTSVYIANHRPLFTHLAVRIGGRYVVAGKMSISPNTTYPSLLEDGRVEYRVALTEDRLPRLEEIRIWGPLQEDADIQVYRRYGEEYGNLTRPDITFTYFQPKPRQAWVWAAVRGPCSVSCGAGLRWVNYSCLDQARKELVETVQCQGSQQPPAWPEACVLEPCPPYWAVGDFGPCSASCGGGLRERPVRCVEAQGSLLKTLPPARCRAGAQQPAVALETCNPQPCPARWEVSEPSSCTSAGGAGLALENETCVPGADGLEAPVTEGPGSVDEKLPAPEPCVGMSCPPGWGHLDATSAGEKAPSPWGSIRTGAQAAHVWTPAAGSCSVSCGRGLMELRFLCMDSALRVPVQEELCGLASKPGSRREVCQAVPCPARWQYKLAACSVSCGRGVVRRILYCARAHGEDDGEEILLDTQCQGLPRPEPQEACSLEPCPPRWKVMSLGPCSASCGLGTARRSVACVQLDQGQDVEVDEAACAALVRPEASVPCLIADCTYRWHVGTWMECSVSCGDGIQRRRDTCLGPQAQAPVPADFCQHLPKPVTVRGCWAGPCVGQGTPSLVPHEEAAAPGRTTATPAGASLEWSQARGLLFSPAPQPRRLLPGPQENSVQSSACGRQHLEPTGTIDMRGPGQADCAVAIGRPLGEVVTLRVLESSLNCSAGDMLLLWGRLTWRKMCRKLLDMTFSSKTNTLVVRQRCGRPGGGVLLRYGSQLAPETFYRECDMQLFGPWGEIVSPSLSPATSNAGGCRLFINVAPHARIAIHALATNMGAGTEGANASYILIRDTHSLRTTAFHGQQVLYWESESSQAEMEFSEGFLKAQASLRGQYWTLQSWVPEMQDPQSWKGKEGT
luminescence (RLU) of fusion protein left on anti-VWF-A2 coated plate after incubation with 0-20% NPP [1]: shows a decreasing signal when the concentration NPP increases, suggesting that ADAMTS13 cleaves the fusion protein
amount of fusion protein cleaved off and transferred to the new plate [2]: ~120 ng VWFA2-Nanoluc
luminescence (RLU) against NPP concentration, FIG. 1 [2]: This fusion protein is also cleaved by ADAMTS13 but here is not as much influence on light emission
luminescence (RLU) of fusion protein left on anti-VWF-A2 coated plate after incubation with 0-20% NPP [2]: did not demonstrate an effect of an increasing ADAMTS13 concentration
luminescence (RLU) transferred from anti-FLAG plate after A13 at 0-1 IU/mL [2]: a signal increase from ~1.5 towards ~1.7 M RLU for C-Flag
share of the initially offered quantity that was cleaved off and transferred [2]: ~12% of the initially offered quantity to the wells
SDS-PAGE (4-15% gradient, Coomassie Blue), FIG. 10 [3]: shows the expected fragments of the fusion-protein (SEQ ID NO: 17) after cleavage by adding ADAMTS13
